Where a chain is given by its changes, count along the chain named.

For series [1] the following is noted: form not soluble in water, doses between 5 and 50 mg/kg, for example 30 mg/kg; cited from earlier work.
The subject of series [2] is PPAR Response Elements (PPREs) of wt origin or mutated response sequence (CYP4A6m1). The series is described as follows: Luciferase reporter cotransfection with PPAR polypeptide and response element plasmids. The conditions noted are these: for luciferase activity from response elements: C2C12 murine myoblasts, untreated or treated with BRL49653 PPARγ ligand, panel of wt and mutated response elements. The format is cell-based, murine. The source says:
FIG. 2: Comparison of PPAR polypeptides derived from human PPARγ2 receptor. C2C12 murine myoblasts were cotransfected with a mixture of 3 different plasmids: (i) a plasmid expressing the wt or a mutated hPPARγ2; (ii) a plasmid in which the luc+ gene expression is driven by an inducible target sequence made of multiple PPAR Response Elements (PPREs) of wt origin (CYP4A6, CYP4A1 and HMG) or mutated response sequence (CYP4A6m1=SEQ ID No.: 26, CYP4A6m2=control with sequence 5′ GAACT AGGGCA A AGAACA 3′ (SEQ ID No.: 41), CYP4 μm=SEQ ID No.: 22, and HMGm=SEQ ID No.: 34); and (iii) a plasmid expressing the Renilla luciferase gene as an internal control of transfection efficiency. Measurement of luciferase activity for untreated cells (white bars) or cells treated with the BRL49653 PPARγ ligand (grey bars) is shown for each response element (left Y-axis). The relative induction level (x fold induction) resulting from ligand treatment is also shown (dots and right Y-axis)). Nomenclature for the PPAR amino acid sequences used refers to the first, second, and fifth (bolded) amino acid in the P-box of the Zinc finger domain, where wild type is EGCKG (see box in FIG. 1, panel B).
FIG. 3: DNA-binding specificity of the GSV mutant. C2C12 murine myoblasts were cotransfected with a mixture of 3 different plasmids: (i) a plasmid expressing the wt EGG or the GSV mutated hPPARγ2; (ii) a plasmid in which the luc+ gene expression is driven by an inducible target sequence made of multiple wt PPREs (apoAII, BIF, PPREcon, CYP4A1, CYP4A6, FABP, HMG and MEP cloned in sense (-S) or anti-sense (-AS) orientation) or the mutated response element (noted as “m” sequences in FIG. 6, such as CYP4A6m1=SEQ ID No.: 26); and (iii) a plasmid expressing the Renilla luciferase gene as an internal control of transfection efficiency. Expression levels for untreated cells (white) or cells treated with the BRL49653 PPARγ ligand (grey) are shown in left Y-axis and the relative induction (x fold induction) due to ligand treatment is shown in right Y-axis (dots).
One skilled in the art is familiar with protocols for transfecting plasmids into cell or infecting cells with virus. As an example, murine myoblasts (C2C12; ATCC: CRL1772) and human HEK293 (ATCC: CRL1573) cells are seeded in 24-well plates (7.5×10^4 cells per well) and grown for 24 h in DMEM supplemented with 10% FCS. Cells are washed in DMEM without serum and transfected in triplicate by adding to the cells 0.5 ml of OptiMEM mixed with various quantities of reporter gene (AP or luc) encoding plasmid, supplemented to 500 ng with a carrier plasmid and LipofectAMINE (2 μl for C2C12, 3 μl for HEK293). Five hours later, the medium containing the DNA and the LipofectAMINE is replaced by 1 ml of DMEM supplemented with FCS (2% for C2C12, 10% for HEK293). […]

For `CN(CCOc1ccc(CC2SC(=O)NC2=O)cc1)c1ccccn1` (centres unmarked) [BRL49653, rosiglitazone], the plasma concentration result in series [1] is “about 15 μg/ml”.

B1: GSG: human PPARγ2 with GSCKG substitutions in the P-box (SEQ ID NO: 7) (protein)
chain: MGETLGDSPIDPESDSFTDTLSANISQEMTMVDTEMPFWPTNFGISSVDLSVMEDHSHSFDIKPFTTVDFSSISTPHYEDIPFTRTDPVVADYKYDLKLQEYQSAIKVEPASPPYYSEKTQLYNKPHEEPSNSLMAIECRVCGDKASGFHYGVHACGSCKGFFRRTIRLKLIYDRCDLNCRIHKKSRNKCQYCRFQKCLAVGMSHNAIRFGRMPQAEKEKLLAEISSDIDQLNPESADLRALAKHLYDSYIKSFPLTKAKARAILTGKTTDKSPFVIYDMNSLMMGEDKIKFKHITPLQEQSKEVAIRIFQGCQFRSVEAVQEITEYAKSIPGFVNLDLNDQVTLLKYGVHEIIYTMLASLMNKDGVLISEGQGFMTREFLKSLRKPFGDFMEPKFEFAVKFNALELDDSDLAIFIAVIILSGDRPGLLNVKPIEDIQDNLLQALELQLKLNHPESSQLFAKLLQKMTDLRQIVTEHVQLLQVIKKTETDMSLHPLLQEIYKDLY
modifications: PPAR gamma 2 recombinant polypeptide comprising GSCKG in Zinc finger domain
As for B1, the “luciferase activity from response elements” value in series [2] is “particularly strong and selective”.

B2: GSV: human PPARγ2 with GSCKV substitutions in the P-box of the Zinc finger domain (SEQ ID NO: 8) (protein)
chain: B1 chain with G161V
modifications: PPAR gamma 2 recombinant polypeptide comprising GSCKV in Zinc finger domain
With B2, the “relative induction level resulting from ligand treatment” value in series [2] (C2C12, BRL49653 treatment, CYP4A6m1 response element) was “highest induction levels”. The figures for the “luciferase activity from response elements” value in series [2] and in series [2] (listed as PPARγ2 (GSV)) were “highly selective” and “specific for the CYP4A6m1”, respectively.

(Values after patent publication US20040038249A1, “Inducible expression systems employing PPAR transcriptional activators” (priority 2002, published 2004).)
